These results are taken from patent publication US5614400.

Experiment [1] deals with [1-^14 C]14:0-ACP (myristoyl-acyl carrier protein made with Escherichia coli ACP) (Escherichia coli) (UniProt P0A6A8).
The target in experiment [2] is [1-^14 C]16:0-ACP (palmitoyl-acyl carrier protein made with Escherichia coli ACP) (Escherichia coli) (UniProt P0A6A8).

“100,000×g supernatant of a T. alata endosperm homogenate (soluble Δ^6 16:0-ACP desaturase activity) (pool or library)”: the Δ^6 monounsaturated product, specific activity (pmol/min/mg protein) in experiment [1] was found to be 13; in experiment [2], 99.
